From patent US20230203188A1 (published 2023)

T1: full-length cyno SIRPβ1v3 (XP_005568593, clone 1HC6), on CHO cells (cynomolgus monkey, UniProt A0A2K5VYQ9)
T1 construct: whole, on cells; also called Cynomolgus SIRPβ1v3 XP-005568593 Clone 1HC6
T1 sequence: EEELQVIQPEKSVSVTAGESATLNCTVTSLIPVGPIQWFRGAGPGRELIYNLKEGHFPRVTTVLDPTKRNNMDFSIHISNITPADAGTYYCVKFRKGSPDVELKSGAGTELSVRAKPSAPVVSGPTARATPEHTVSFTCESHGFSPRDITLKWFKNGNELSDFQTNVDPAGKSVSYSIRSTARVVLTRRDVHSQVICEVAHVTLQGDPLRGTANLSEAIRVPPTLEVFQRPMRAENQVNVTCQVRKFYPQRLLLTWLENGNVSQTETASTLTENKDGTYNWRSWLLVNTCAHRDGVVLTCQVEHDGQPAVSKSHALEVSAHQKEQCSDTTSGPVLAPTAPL


Columns and labels:
[1] = molecular target: T1, full-length cyno SIRPβ1v3 …; test: flow cytometry on CHO cells expressing the target
Protocol: (§1) Antibody binding to cells expressing full-length cynomolgus SIRPβ1 (XP_005568598) and SIRPβ1v3 (XP_005568593) is evaluated by flow cytometry. SIRPβ1- or SIRPβ31V3-expressing CHO cells are blocked with donkey IgG and incubated on ice with increasing concentrations of antibodies for 60 minutes, washed and stained with AF647-conjugated donkey F(ab′)₂ anti-human IgG secondary reagent. Cells are washed, fixed, and analyzed by flow cytometry. Median fluorescent intensity is determined and used as a measure of antibody binding.

[2] = molecular target: T2, full-length cyno SIRPβ1 (XP_005568598, clone PA2), on CHO cells (cynomolgus monkey); test: flow cytometry on CHO cells expressing the target
T2 construct: whole, on cells; also called Cynomolgus SIRPβ1 XP_005568598 Clone PA2
Protocol: as §1

EC50 [1] [pM] | EC50 [2] [pM] | Binder
400 |  | KWAR23 (antibody, V domains shown) VH: EVQLQQSGAELVKPGASVKLSCTASGFNIKDYYIHWVQQRTEQGLEWIGRIDPEDGETKYAPKFQDKATITADTSSNTAYLHLSSLTSEDTAVYYCARWGAYWGQGTLVTVSS VL: QIVLTQSPAIMSASPGEKVTLTCSASSSVSSSYLYWYQQKPGSSPKLWIYSTSNLASGVPARFSGSGSGTSYSLTISSMEAEDAASYFCHQWSSYPRTFGAGTKLELK
 | 700 | Antibody A (antibody, human IgG1, kappa, L234A L235A, human IgG1 (LALA) backbone, kappa) heavy: not shown light: DIQMTQSPSSLSASVGDRVTITCRASQDINNYLAWFQQKPGKAPKSLIYTASSLHSGVPSKFSGSGSGTDFTLTISSLQPEDFATYYCQQYVSYPYTFGQGTKLEIKRTVAAPSVFIFPPSDEQLKSGTASVVCLLNNFYPREAKVQWKVDNALQSGNSQESVTEQDSKDSTYSLSSTLTLSKADYEKHKVYACEVTHQGLSSPVTKSFNRGEC
 | 600 | Antibody A10 (antibody, human IgG1, kappa, L234A L235A, engineered variant of Antibody A; IgG1 (LALA)) heavy: not shown light: DIQMTQSPSSLSASVGDRVTITCRASQDINNYLAWFQQKPGKAPKSLIYTASSLHSGVPSKFSGSGSGTDFTLTISSLQPEDFATYYCQQYVSYPYTFGQGTKLEIKRTVAAPSVFIFPPSDEQLKSGTASVVCLLNNFYPREAKVQWKVDNALQSGNSQESVTEQDSKDSTYSLSSTLTLSKADYEKHKVYACEVTHQGLSSPVTKSFNRGEC
